Target: Dictyostelium myosin II (bipolar filaments) (Dictyostelium discoideum) (UniProt P08799)

B1: GST-B-Δ-WD, MHCK-B truncation lacking only the WD-repeat domain (amino acids 1-450) (domain or fragment)
chain: MIFKVWFSYEDEEVELSELTNDTTVSAIRKILHEGKIFRFPYGTSQTDLQIGKMLPSGSGGGATADSKFEKFKARNTLADIQYKVGDTLYVRVKKSKPTNDSLLPTLNIAFLDGSERAIKWEYDPYTTTAQWTCTATLVKVEPVPFAEGAFRKAYHTLDLSKSGASGRYVSKIGKKPTPRPSYFEDVKMQMIAKKWADKYNSFKPPKKIEFLQSCVLEFVDRTSSDLICGAEPYVEGQYRKYNNNSGFVSNDERNTPQSFSHFTYEHSNHQLLIIDIQGVGDHYTDPQIHTYDGVGFGIGNLGQKGFEKFLDTHKCNAICQYLNLQSINPKSEKSDCGTVPRPDLIFPDTSERDNNNNNNNNNNNNNNNNNNNSNNNNNNNSSISKSLVEISSGSKERNDRDSPSRQLFVSNDGNTLNTNKERSKSKSIDLEKPEILINNKKKESINLET
Binder B1 has a phosphorylation of MHC in a kinase assay (50 nM kinase, 1.0 μM myosin II), against the full-length kinase (% of the full-length kinase) of 30.

Source: paper PMC2838905
